Results as given in US8173133B2, “Acyl pseudodipeptides which carry a functionalized auxiliary arm” (OM Pharma, priority 1999, dated 2012).

Experiments:
murine macrophage cells = experiment: nitric oxide production by murine macrophage cells (Griess); assay type: cell-based, C57/BL6 mice
From the text: Six-week old male C57/BL6 mice are killed by CO2 inhalation. The hip, femur, tibia and posterior appendage bones are removed. The bone marrow is extracted from the bone lumen by injecting Dulbecco's Modified Eagle Medium (DH medium) from the end portions which had been excised. The stem cells are washed and resuspended (approximate cell concentration 4000 cells/ml) in DH medium supplemented with 20% equine serum (SH) and 30% L929 cell supernatant. L929 is a murine fibroblast cell line the supernatant fluid of which is rich in growth factor for macrophage cells (M-CSF). The cell suspension is divided into Petri dishes which are incubated for 8 days in an incubator at 37° C. under 8% CO2 and a moisture saturated atmosphere.
After 8 days, the stem cells have differentiated into mature macrophage cells. The macrophage cells are scraped off by rapid cooling, washed and resuspended in DH medium supplemented with 5% foetal calf serum (FCS), amino acids and antibiotics. The cell density is adjusted to 700 000 cells/ml.
Products previously dissolved in DH medium supplemented with 5% FCS, amino acids and antibiotics are serially diluted directly in microtiter plates. The products are tested in triplicates and each microtiter plate comprises a negative control containing plain medium. The final volume in each well is 100 μl.
100 μl of cell suspension are added to diluted solutions of such products and the cells are incubated for 22 hours in an incubator at 37° C., under 8% CO2 and a moisture saturated atmosphere. At the end of the incubation period with the products, 100 μl of supernatant are withdrawn and the nitrite concentration is determined by running a Griess reaction.
100 μl of Griess reagent (5 mg/ml of sulfanilamide+0.5 mg/ml of N-(1-naphtylethylene diamine hydrochloride)) in 2.5% aq. phosphoric acid, are added to each well. The microtiter plates are read with a spectrophotometer at 562 nm wavelength against a reference sample at 690 nm. The nitrite concentration is proportional to nitric oxide content being formed. The nitrite content is determined based on a standard curve.
The results are given as mean value±standard deviation and plotted as a dose versus response curve.
From this dose versus response curve, 3 curve variables are computed:
Max: maximum curve amplitude and corresponding concentration
EC50: concentration corresponding to 50% of maximum amplitude
Min: lowest concentration inducing a significant proliferation corresponding to the blank±3× standard deviation value
Concentration values corresponding to EC50 and Min are determined from line segments joining different points on the curve.
If the curve has no plateau phase but an ascending configuration for the highest concentration being tested, a “>” sign is shown before “Max” and “EC50” values.

[1] = system: human peripheral blood mononuclear cells; experiment: inhibition of E. coli LPS-induced α TNF production in human peripheral blood mononuclear cells; assay type: cell-based; settings: product 10 μg/ml
Method: (§1) Mononuclear cells of peripheral blood are recovered from buffy coats of 6 healthy donors. Such buffy coat cells are resuspended and mononuclear cells are isolated by centrifugation on a Ficoll-Paque gradient (Amersham Pharmacia). Purified mononuclear cells are resuspended into RPMI-1640 medium supplemented with 10% FCS, antibiotics, mercaptoethanol and L-glutamine. Cell concentration is adjusted to 2×10^6 viable cells/ml.
Product mediated Inhibition is determined by preincubating those products with mononuclear cells, and adding, 1 hour later, serially diluted solutions of LPS capable of inducing α TFN production. […] E. coli LPS is serially diluted (10-fold dilution) to be in the range of 1 to 0.00001 μg/ml
50 μl of 10 μg/ml dilute product solutions in RPMI 1640 medium are dispensed into a microtiter plate. Each assay (10 μg/ml product concentration+dilute E. coli LPS) is run in triplicates and each microtiter plate includes a negative control comprised of plain medium. LPS-induced α TNF production (without inhibitor) is determined by adding E. coli LPS dilutions to RPMI medium.
100 μl of the cell suspension are added to each well containing dilutions of either product or control. Cells are incubated with the products for 1 hour in an incubator at 37° C., under 5% CO2 and a moisture saturated atmosphere.
At the end of the pre-incubation period, 50 μl of serially diluted solutions of E. coli LPS are added. Incubation of mononuclear cells with the product and LPS is extended for 18 hours. At the end of the cell activation period, the microtiter plates are centrifuged, and the supernatants are pooled and frozen at −80° C. as aliquots until time of ELISA assay.
Concentration of αTNF secreted by mononuclear cells is determined by chemiluminescent ELISA (QuantiGlo #QTAOO R&D kit). 4-fold dilutions of supernatant fluid are dispensed into each well of the microtiter plate to which anti-human αTNF antibodies are bound. The microtiter plate is incubated for 4 hours at room temperature. After washing, peroxidase-conjugated anti-human αTNF antibody is added. Following a 2 hour incubation period and a thorough washing, a chemiluminescent substrate is added and chemilunescence is read after 20 minutes. αTNF content in the supernatant fluid is determined with respect to a standard curve covering the 7000 to 0.7 pg/ml range.
Inhibition is characterized by the E. coli LPS concentration which elicits 50% production of α TNF during co-incubation in comparison to a control including only RPMI. This concentration increases as product inhibition activity becomes stronger. Knowing inhibition values of α TNF production, this concentration is given by calculating 100-(αTNF production induced by product and LPS)/(αTNF production induced by LPS alone)*100. From these inhibition data, concentration is determined by linear regression along the line segment which joins 2 LPS dilutions giving approx. 50% inhibition.
Product ability to inhibit α TNF production in mononuclear cells in response to LPS is further characterized by maximum inhibition. […] Results are calculated from a representative experience using all products.

[2] = system: human peripheral blood mononuclear cells; experiment: α TNF production by human peripheral blood mononuclear cells; assay type: cell-based; settings: 18 hours
Method: as §1, with “cells/ml” for “cells/ml.”
100 μl of each one of these solutions of acyl dipeptide-like compounds bearing an accessory functional side chain spacer, diluted 100-, 10- or 1-fold in RPMI medium 1640, are dispensed into a microtiter plate. Samples are tested in triplicates, and each microtiter plate includes a negative control made up of plain medium. Dilutions of E. coli LPS (ranging grom 1 to 0.00001 μg/ml) are used as a positive control.
100 μl of the cell suspension are added to each well containing product dilute solutions or control. Cells are incubated with the products for 18 hours in an incubator at 37° C., under 5% CO2 and a moisture saturated atmosphere.
At the end of the incubation period, microtiter plates are centrifuged, and the supernatant fluids are pooled and frozen at −80° C. as aliquots until time of ELISA assay.
Concentration of α TNF secreted by mononuclear cells is determined by chemiluminescent ELISA (QuantiGlo #QTAOO R&D kit). 4-fold supernatant fluid dilutions are dispensed into each well of the microtiter plate to which anti-αTNF antibodies are bound. The microtiter plate is incubated for 4 hours at room temperature. After washing, peroxidase-conjugated anti-human a TNF antibody is added. Following a 2 hour incubation period and thorough washing, a chemiluminescent substrate is added and chemilunescence is read after 20 minutes. α TNF content in the supernatant fluid is determined with respect to a standard curve covering the 7000 to 0.7 pg/ml range.
Results are expressed in pg/ml of α TNF produced. Results derive from an experiment representative of acyl-dipeptide-like compound activity

Spleenic cells = experiment: murine spleenic cell proliferation (3H-TdR take-up); assay type: cell-based, CBA mice; settings: 5 μg/ml, one day of culture, positive control
Method: Cell proliferation response is assessed by measuring triturated thymidine (^3H-TdR) take-up after 1 or 2 days of culture. Values reported in the table stand for the arithmetic mean±standard deviation of 4 cultures.

[3] = system: Limulus Amoebocyte Lysate
K562 cells = experiment: activation of NK cell cytotoxicity against K562 target cells (LDH release); assay type: cell-based, human
Method: PBMC were recovered from buffy coats according to the procedure previously described in example 4.6. […] Cells were incubated under such conditions for 24 hours. K562 cells (human leukemia cell line, ATCC #CCL 243, 20110-2209 Manassas (Va.), U.S.A.) were maintained in culture using RPMI medium containing 10% FCS and subjected to 2 passages per week.
In order to make cytotoxicity measurement, PBMC and K562 cells were washed twice in HBSS and resuspended in Phenol Red-free RPMI medium containing 5% FCS. PBMC were divided into a round bottom 96-well plate so as to achieve a PBMC/target ratio of 20/1, 10/1 and 5/1 in 50 μl volume. 5000 K562 cells (target) were added in each well using 50 μl of Phenol Red-free RPMI. Final volume was 100 μl. The plate was centrifuged to promote contact then incubated at 37° C. for 4 hours.
Cytotoxicity was assayed using a non radioactive CytoTox 96 kit based on measuring LDH release during cell lysis (kit #G1780, batch #124100, Promega, Madison, Wis.) according to the supplier's instructions.
The percentage of cytotoxicity was calculated according to the following equation: […]

With “(3R,9R)-3-[(R)-3-dodecanoyloxytetradecanoylamino]-4oxo-5-aza-9-[(R)-3-hydroxytetradecanoylamino]-1,10-diol 1-dihydrogenphosphate 10-(6-aminohexanoate) [OM-197-MP-AC (R, R)]” the Max concentration (murine macrophage cells; concentration at maximum amplitude) was > 100 µg/mL, the EC50 conc (murine macrophage cells; concentration corresponding to 50% of maximum amplitude) was > 15.32 µg/mL and the Min concentration (murine macrophage cells; lowest concentration inducing a significant response) was 3.35 µg/mL. For the same molecule, the “max. Inhibition” value [1] was 100%, the “50% inhibition LPS” value ([1]; LPS concentration at which α TNF production is 50% of control) was 0.68 µg/mL and the “max. Inhibition LPS” value ([1]; LPS concentration corresponding to maximum inhibition) was 0.0013 µg/mL. The “α TNF produced” value ([2]; product 1 μg/ml) was 0 pg/mL, the “α TNF produced” value ([2]; product 10 μg/ml) was 88 pg/mL and the “α TNF produced” value ([2]; product 100 μg/ml) was 84 pg/mL.

Concanavalin A [reference compound] was tested, and the thymidine take-up (Spleenic cells) was 37.5±6.2 ×10^3 cpm.

B1: Ovalbumin: antigen alone (ovalbumin, Fluka AG) (protein, UniProt P01012 2-386, looked up)
Ovalbumin: GSIGAASMEFCFDVFKELKVHHANENIFYCPIAIMSALAMVYLGAKDSTRTQINKVVRFDKLPGFGDSIEAQCGTSVNVHSSLRDILNQITKPNDVYSFSLASRLYAEERYPILPEYLQCVKELYRGGLEPINFQTAADQARELINSWVESQTNGIIRNVLQPSSVDSQTAMVLVNAIVFKGLWEKAFKDEDTQAMPFRVTEQESKPVQMMYQIGLFRVASMASEKMKILELPFASGTMSMLVLLPDEVSGLEQLESIINFEKLTEWTSSNVMEERKIKVYLPRMKMEEKYNLTSVLMAMGITDVFSSSANLSGISSAESLKISQAVHAAHAEINEAGREVVGSAEAGVDAASVSEEFRADHPFLFCIKHIATNAVLFFGRCVSP
In the case of B1, the “LAL EU/mg” value [3] is reported as <0.8 EU/mg and the “LAL ng of LPS equivalent per mg of product” value [3] is reported as <0.064 ng of LPS equivalent per mg of product.

B2: OM-197-FV-ovalbumin: OM-197-FV7 coupled to ovalbumin by reductive amination (conjugate, UniProt P01012 2-386, looked up)
Ovalbumin: GSIGAASMEFCFDVFKELKVHHANENIFYCPIAIMSALAMVYLGAKDSTRTQINKVVRFDKLPGFGDSIEAQCGTSVNVHSSLRDILNQITKPNDVYSFSLASRLYAEERYPILPEYLQCVKELYRGGLEPINFQTAADQARELINSWVESQTNGIIRNVLQPSSVDSQTAMVLVNAIVFKGLWEKAFKDEDTQAMPFRVTEQESKPVQMMYQIGLFRVASMASEKMKILELPFASGTMSMLVLLPDEVSGLEQLESIINFEKLTEWTSSNVMEERKIKVYLPRMKMEEKYNLTSVLMAMGITDVFSSSANLSGISSAESLKISQAVHAAHAEINEAGREVVGSAEAGVDAASVSEEFRADHPFLFCIKHIATNAVLFFGRCVSP
modifications: OM-197-FV coupled by reductive amination
With B2 the “LAL EU/mg” value [3] was 99 EU/mg and the “LAL ng of LPS equivalent per mg of product” value [3] was 8.21 ng of LPS equivalent per mg of product.

B3: IFN-γ: γ IFN (1000 U/ml) stimulus (protein, UniProt P01579 24-161, looked up)
Interferon gamma: QDPYVKEAENLKKYFNAGHSDVADNGTLFLGILKNWKEESDRKIMQSQIVSFYFKLFKNFKDDQSIQKSVETIKEDMNVKFFNSNKKKRDDFEKLTNYSVTDLNVQRKAIHELIQVMAELSPAAKTGKRKRSQMLFRG
With B3 the “% cytotoxicity” value (K562 cells; Ratio PBMC:K562 5.1) was 17.9%, the “Optical density at 490 nm, K562 + PBMC” value (K562 cells; Ratio PBMC:K562 5.1) was 1.68 and the “Optical density at 490 nm, PBMC alone” value (K562 cells; Ratio PBMC:K562 5.1) was 0.035. The “% cytotoxicity” value (K562 cells; Ratio PBMC:K562 10.1) was 29.4%, the “Optical density at 490 nm, K562 + PBMC” value (K562 cells; Ratio PBMC:K562 10.1) was 1.9 and the “Optical density at 490 nm, PBMC alone” value (K562 cells; Ratio PBMC:K562 10.1) was 0.064. For the same molecule, the “% cytotoxicity” value (K562 cells; Ratio PBMC:K562 20.1) was 39.3%, the “Optical density at 490 nm, K562 + PBMC” value (K562 cells; Ratio PBMC:K562 20.1) was 2.1 and the “Optical density at 490 nm, PBMC alone” value (K562 cells; Ratio PBMC:K562 20.1, stimulus 24 hours) was 0.101.
